Article PMC8017925, “Structural basis for differential recognition of phosphohistidine-containing peptides by 1-pHis and 3-pHis monoclonal antibodies” (Proceedings of the National Academy of Sciences of the …, 2021)

Target: ACLYana-3-pTza peptide (AGAG-3-pTza-AGAG)
Experiment: BLI binding kinetics of 3-pHis Fabs with cognate pTza peptide
Method: Biolayer interferometry (BLI) studies were performed to determine the relative affinity of pHis Fabs to in situ phosphorylated His peptides versus the phosphomimetic substrates. The N-terminally biotinylated peptides were immobilized on streptavidin biosensors and the rate of association (ka) and dissociation (kd) were determined by varying the pHis Fab concentration. Equilibrium dissociation constants (KD) were determined by fitting the experimental data to a 1:1 Langmuir binding model. ACLYana-1-pTza and ACLYana-3-pTza peptides were used to determine affinity to 1-pHis and 3-pHis Fabs, respectively (Fig. 3 A–E and Table 1). […] The two isomers were separated from each other by passing the reaction through affinity columns containing 1-pHis mAbs using SC1-1 or SC50-3 IgGs or 3-pHis mAbs using SC39-4, SC44-8, and SC56-2 IgGs. The eluates thus contained either predominantly 1-pHis or 3-pHis peptides. These peptides were used to determine the affinity to their respective isomer class of pHis Fabs (Fig. 3 F–J, Table 1, and SI Appendix, Fig. S5). […] This experimental observation is well supported by the higher number of hydrogen bonds that support the SC44-8:3-pTza interaction compared to other pHis Fabs (SI Appendix, Table S5). […] There are at least three reasons for the lower affinity of the mAbs for pHis peptides compared to pTza peptides: The continuous hydrolysis of phosphate from the pHis peptides during the course of the experiment (SI Appendix, Fig. S6), a reduction in the number of hydrogen bond interactions due to one less nitrogen in the imidazole ring compared to triazolyl ring (Fig. 4 and SI Appendix, Fig. S8), and inherently different electronic properties of the imidazole and triazolyl rings in His and Tza, respectively ([20]).
Fig. 3. Binding kinetics of pHis Fabs with cognate pTza and pHis peptides. BLI studies of immobilized peptides (ACLYana-1/3-pTza and phosphorylated ACLYana) with varying concentrations of the pHis Fabs were carried out in triplicate on an Octet Red96e instrument (FortéBio). SC1-1 (A) and SC50-3 (B) pHis Fab interaction with their ACLYana-1-pTza peptides. SC39-4 (C), SC44-8 (D), and SC56-2 (E) pHis Fabs interactions with ACLYana-3-pTza peptides. SC1-1 (F), SC50-3 (G), SC39-4 (H), SC44-8 (I), and SC56-2 (J) pHis Fabs interactions with their affinity-purified ACLYana-pHis peptides are represented, Right. The experimental data are represented in the black dashed lines and the nonlinear least-squares fitting was represented in the red continuous lines. The χ^2 for the goodness of fit is under 1.0 for the all the plots.
The binding kinetics of pHis Fabs with the peptides (pTza and pHis) were evaluated with an Octet RED96e (FortéBio). Streptavidin-coated biosensors (FortéBio) were presoaked in buffer containing 50 mM Hepes pH 8.0, 150 mM NaCl, 0.05% Tween-20, and 0.2% BSA for 15 min. The biotinylated pTza peptides or pHis peptides (20 nM) with and without phosphoramidate treatment were coated onto these streptavidin biosensors and analyzed for their binding to varying concentrations of the pHis Fabs with an association time of 120 s and dissociation time of 200 s. The entire set of experiments was repeated three times. The data were analyzed using the Octet software (FortéBio) and the rates of association and dissociation were obtained by global fitting data to the 1:1 Langmuir interaction model.

[1] = BLI, immobilized biotinylated ACLYana-3-pTza, 1:1 Langmuir global fit, triplicate

Kd (BLI Octet RED96e, N-terminally biotinylated peptide (20 nM) on streptavidin biosensors, varying Fab concentration, 50 mM Hepes pH 8.0, 150 mM NaCl, 0.05% Tween-20, 0.2% BSA, association 120 s, dissociation 200 s, global fit 1:1 Langmuir, triplicate): 0.235 nM
dissociation rate, times slower than the other pHis Fabs (BLI, 3-pTza peptide): 70 times
ka [1]: 156000 ± 457 M⁻¹ s⁻¹
kd [1]: 3.66e-05 ± 7.5e-07 s⁻¹
B1: SC44-8: Fab of rabbit 3-pHis-specific monoclonal antibody with proclivity for GpHAGA motif (antibody, V domains shown)
VH: QSVKESGRGLVQPGGSLTLTCTASGFSIDSYGFSWVRQAPGKGLEHIGYLTAGGRAFYASWAKSRSTITRNTNENTVTLKMTSLTAADTATYFCAKLGSGNPVAIWGPGTLVTVSS
VL: QVLTQTPSFTSAAVGGTVTINCQSSQSVWRNKNLAWYQQKPGQPPKRLIYAIATLDSGVPSRFSGSGSGTQFTLTISDVQCDDAATYYCVGHYGSENDAYYAFGGGTEVVVK
